{"source": "patent US20160137730A1", "about": "(Novartis, published 2016)", "binders": {"B1": {"name": "NOV169N31Q Fab (Fab, V domains shown)", "VH": "QVQLQQSGPGLVKPSQTLSLTCAISGDSVSSQSAAWNWIRQSPSRGLEWLGRIYYRSKWYNDYALSVKSRITINPDTSKNQFSLQLNSVTPEDTAVYYCARGEGYGREGFAIWGQGTLVTVSS", "VL": "DIQMTQSPSSLSASVGDRVTITCRASQTISNTLAWYQQKPGKAPKLLIYAASNLQSGVPSRFSGSGSGTDFTLTISSLQPEDFATYYCQQYLSWFTFGQGTKVEIKR", "notes": "Expressed in E. coli; also called Fab fragment of NOV169N31Q"}}, "key": {"[1]": {"target": "T1, recombinant human E-cadherin ECD (human, UniProt P12830 155-709)", "T1 construct": "extracellular domain; also called E-cadherin (CDH1)", "T1 sequence (looked up)": "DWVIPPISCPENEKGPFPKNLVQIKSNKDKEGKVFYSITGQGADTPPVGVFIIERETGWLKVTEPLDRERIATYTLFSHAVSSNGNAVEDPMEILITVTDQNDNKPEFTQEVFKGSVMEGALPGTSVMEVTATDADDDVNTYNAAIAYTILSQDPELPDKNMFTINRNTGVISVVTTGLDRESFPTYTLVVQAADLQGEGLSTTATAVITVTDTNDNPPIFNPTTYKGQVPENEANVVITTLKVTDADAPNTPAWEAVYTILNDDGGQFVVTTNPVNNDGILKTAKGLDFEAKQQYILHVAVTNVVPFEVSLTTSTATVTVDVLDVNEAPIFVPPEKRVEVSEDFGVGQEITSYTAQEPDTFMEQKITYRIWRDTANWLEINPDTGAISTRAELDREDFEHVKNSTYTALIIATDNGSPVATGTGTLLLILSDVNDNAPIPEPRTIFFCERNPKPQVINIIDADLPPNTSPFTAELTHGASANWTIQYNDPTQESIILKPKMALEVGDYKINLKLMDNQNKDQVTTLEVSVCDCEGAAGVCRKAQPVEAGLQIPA", "assay": "ELISA, ECD coated on plate, Fab-containing E. coli lysate", "experimental": "(§1) To assess specificity of binding to P-cadherin vs E-cadherin and N-cadherin, Maxisorp 384-well plates were o/n at 4° C. with recombinant human E-cadherin or N-cadherin ECD and Fab fragments were assayed using an enzyme-linked immunosorbent assay (ELISA) format. After washing, plates were blocked for 2 h with 5% skim milk in 1×PBST. Fab-containing E. coli lysates were added and binding allowed for 1 h at room temperature (RT). To detect bound Fab fragments, plates were washed 5× with TBST and AP-anti human IgG F(ab′)₂ was added in a 1/2500 dilution. After 1 h at RT, plates were washed 5× with TBST and AttoPhos substrate was added according to the manufacturers specifications. Plates were read in an ELISA reader 5 minutes after adding the substrate."}, "[2]": {"target": "T2, recombinant human N-cadherin ECD (human, UniProt P19022 160-724)", "T2 construct": "extracellular domain; also called N-cadherin (CDH2)", "T2 sequence (looked up)": "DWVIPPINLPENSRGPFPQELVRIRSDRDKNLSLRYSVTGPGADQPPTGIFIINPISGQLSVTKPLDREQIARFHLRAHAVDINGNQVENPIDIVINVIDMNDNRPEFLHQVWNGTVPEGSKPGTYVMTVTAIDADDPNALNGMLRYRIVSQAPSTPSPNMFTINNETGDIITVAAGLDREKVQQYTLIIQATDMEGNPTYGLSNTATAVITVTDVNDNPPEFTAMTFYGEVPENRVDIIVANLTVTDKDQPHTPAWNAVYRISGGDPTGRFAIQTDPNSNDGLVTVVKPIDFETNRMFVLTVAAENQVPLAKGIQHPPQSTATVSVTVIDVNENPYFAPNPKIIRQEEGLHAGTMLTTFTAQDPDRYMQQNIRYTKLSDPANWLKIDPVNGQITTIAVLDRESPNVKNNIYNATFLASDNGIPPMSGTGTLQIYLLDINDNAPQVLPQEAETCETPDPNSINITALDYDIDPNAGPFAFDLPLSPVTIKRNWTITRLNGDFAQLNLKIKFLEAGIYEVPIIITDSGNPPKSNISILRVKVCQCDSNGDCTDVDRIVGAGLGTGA", "assay": "ELISA, ECD coated on plate, Fab-containing E. coli lysate", "experimental": "as §1"}}}
{"binder": "B1", "values": [{"measurement": "binding result", "setting": "[1]", "result": "no binding"}, {"measurement": "binding result", "setting": "[2]", "result": "no binding"}]}
